{"source": "patent US20120316071A1", "key": {"[1]": {"molecular_target": "rHuman P-Cadherin/Fc Chimera, CF (R&D Systems Cat#861-PC) (human) (UniProt P22223)", "test": "Multispot ECL (MSD), antigen spotted on plate, Fab […]; blank spot 276"}, "[2]": {"molecular_target": "rHuman P-Cadherin/Fc Chimera, CF (R&D Systems Cat#861-PC) (human) (UniProt P22223)", "test": "Multispot ECL (MSD), antigen spotted on plate, Fab […]; blank spot 357"}, "[3]": {"molecular_target": "rHuman P-Cadherin/Fc Chimera, CF (R&D Systems Cat#861-PC) (human) (UniProt P22223)", "test": "Multispot ECL (MSD), antigen spotted on plate, Fab 36.3 nM; blank spot 314"}, "[4]": {"molecular_target": "rHuman P-Cadherin/Fc Chimera, CF (R&D Systems Cat#861-PC) (human) (UniProt P22223)", "test": "Multispot ECL (MSD), antigen spotted on plate, Fab 580 nM; blank spot 679"}, "[5]": {"molecular_target": "rHuman P-Cadherin/Fc Chimera, CF (R&D Systems Cat#861-PC) (human) (UniProt P22223)", "test": "Multispot ECL (MSD), antigen spotted on plate, Fab […]; blank spot 162"}, "[6]": {"molecular_target": "rHuman Notch-1/Fc Chimera, CF (R&D Systems Cat#3647-TK) (human) (UniProt P46531)", "test": "Multispot ECL (MSD), antigen spotted on plate, Fab […]; blank spot 162"}, "[7]": {"molecular_target": "rHuman Erythropoietin R/Fc Chimera, CF (R&D Systems Cat#963-ER) (human) (UniProt P19235)", "sequence (P19235 25-250, change not shown)": "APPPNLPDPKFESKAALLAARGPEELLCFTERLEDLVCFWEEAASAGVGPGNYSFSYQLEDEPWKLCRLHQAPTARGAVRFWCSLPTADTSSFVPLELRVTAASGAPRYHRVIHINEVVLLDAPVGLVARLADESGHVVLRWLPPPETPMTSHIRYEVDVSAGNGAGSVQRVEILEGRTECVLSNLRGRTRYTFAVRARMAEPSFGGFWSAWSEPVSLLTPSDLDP", "test": "Multispot ECL (MSD), antigen spotted on plate, Fab […]; blank spot 162"}, "[8]": {"molecular_target": "rHuman CD44/Fc Chimera, CF (R&D Systems Cat#3660-CD) (human) (UniProt P16070)", "test": "Multispot ECL (MSD), antigen spotted on plate, Fab […]; blank spot 162"}, "[9]": {"molecular_target": "rHuman IGF-1 sR, (IGF-1 sR), CF (R&D Systems Cat#391-GR) (human) (UniProt P08069)", "test": "Multispot ECL (MSD), antigen spotted on plate, Fab […]; blank spot 162"}, "[10]": {"molecular_target": "rHuman HGF R/c-MET/Fc Chimera, CF (R&D Systems Cat#358-MT/CF) (human) (UniProt P08581)", "sequence (P08581 25-932, change not shown)": "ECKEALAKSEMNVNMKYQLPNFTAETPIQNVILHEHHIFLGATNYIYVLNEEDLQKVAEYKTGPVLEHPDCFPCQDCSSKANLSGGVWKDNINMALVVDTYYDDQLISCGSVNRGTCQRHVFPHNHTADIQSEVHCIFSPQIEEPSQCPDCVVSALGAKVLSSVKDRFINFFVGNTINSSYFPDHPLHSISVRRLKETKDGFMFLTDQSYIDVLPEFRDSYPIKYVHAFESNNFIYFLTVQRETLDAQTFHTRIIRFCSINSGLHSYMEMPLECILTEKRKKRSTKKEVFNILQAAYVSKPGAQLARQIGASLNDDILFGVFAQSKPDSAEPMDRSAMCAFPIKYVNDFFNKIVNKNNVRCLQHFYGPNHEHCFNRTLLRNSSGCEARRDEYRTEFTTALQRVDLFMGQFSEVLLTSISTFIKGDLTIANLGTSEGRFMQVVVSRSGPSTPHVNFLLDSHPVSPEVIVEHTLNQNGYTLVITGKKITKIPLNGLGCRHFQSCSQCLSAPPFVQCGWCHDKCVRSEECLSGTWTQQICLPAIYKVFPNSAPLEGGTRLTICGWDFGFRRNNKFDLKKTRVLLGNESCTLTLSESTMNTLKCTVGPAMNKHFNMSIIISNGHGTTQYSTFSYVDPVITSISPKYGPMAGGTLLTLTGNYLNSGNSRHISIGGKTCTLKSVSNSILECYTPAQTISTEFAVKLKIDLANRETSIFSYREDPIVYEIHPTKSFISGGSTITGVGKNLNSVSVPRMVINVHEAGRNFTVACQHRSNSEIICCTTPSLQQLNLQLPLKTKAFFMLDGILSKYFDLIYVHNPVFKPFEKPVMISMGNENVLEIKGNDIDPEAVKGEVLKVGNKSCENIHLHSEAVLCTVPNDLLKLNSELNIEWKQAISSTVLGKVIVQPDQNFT", "test": "Multispot ECL (MSD), antigen spotted on plate, Fab […]; blank spot 162"}, "[11]": {"molecular_target": "rHuman EGF R/Fc Chimera, CF (R&D Systems Cat#344-ER) (human) (UniProt P00533)", "test": "Multispot ECL (MSD), antigen spotted on plate, Fab […]; blank spot 162"}, "[12]": {"molecular_target": "rHuman ErbB2/Fc Chimera, CF (R&D Systems Cat#1129-ER) (human) (UniProt P04626)", "test": "Multispot ECL (MSD), antigen spotted on plate, Fab […]; blank spot 162"}, "[13]": {"molecular_target": "rHuman P-Cadherin/Fc Chimera, CF (R&D Systems Cat#861-PC) (human) (UniProt P22223)", "test": "Multispot ECL (MSD), antigen spotted on plate, Fab 170 nM; blank spot 262"}, "[14]": {"molecular_target": "rHuman Notch-1/Fc Chimera, CF (R&D Systems Cat#3647-TK) (human) (UniProt P46531)", "test": "Multispot ECL (MSD), antigen spotted on plate, Fab 170 nM; blank spot 262"}, "[15]": {"molecular_target": "rHuman Erythropoietin R/Fc Chimera, CF (R&D Systems Cat#963-ER) (human) (UniProt P19235)", "test": "Multispot ECL (MSD), antigen spotted on plate, Fab 170 nM; blank spot 262"}, "[16]": {"molecular_target": "rHuman CD44/Fc Chimera, CF (R&D Systems Cat#3660-CD) (human) (UniProt P16070)", "test": "Multispot ECL (MSD), antigen spotted on plate, Fab 170 nM; blank spot 262"}, "[17]": {"molecular_target": "rHuman IGF-1 sR, (IGF-1 sR), CF (R&D Systems Cat#391-GR) (human) (UniProt P08069)", "test": "Multispot ECL (MSD), antigen spotted on plate, Fab 170 nM; blank spot 262"}, "[18]": {"molecular_target": "rHuman HGF R/c-MET/Fc Chimera, CF (R&D Systems Cat#358-MT/CF) (human) (UniProt P08581)", "test": "Multispot ECL (MSD), antigen spotted on plate, Fab 170 nM; blank spot 262"}, "[19]": {"molecular_target": "rHuman EGF R/Fc Chimera, CF (R&D Systems Cat#344-ER) (human) (UniProt P00533)", "test": "Multispot ECL (MSD), antigen spotted on plate, Fab 170 nM; blank spot 262"}, "[20]": {"molecular_target": "rHuman ErbB2/Fc Chimera, CF (R&D Systems Cat#1129-ER) (human) (UniProt P04626)", "test": "Multispot ECL (MSD), antigen spotted on plate, Fab 170 nM; blank spot 262"}, "[21]": {"molecular_target": "rHuman P-Cadherin/Fc Chimera, CF (R&D Systems Cat#861-PC) (human) (UniProt P22223)", "test": "Multispot ECL (MSD), antigen spotted on plate, Fab 340 nM; blank spot 554"}, "[22]": {"molecular_target": "rHuman Notch-1/Fc Chimera, CF (R&D Systems Cat#3647-TK) (human) (UniProt P46531)", "test": "Multispot ECL (MSD), antigen spotted on plate, Fab 340 nM; blank spot 554"}, "[23]": {"molecular_target": "rHuman Erythropoietin R/Fc Chimera, CF (R&D Systems Cat#963-ER) (human) (UniProt P19235)", "test": "Multispot ECL (MSD), antigen spotted on plate, Fab 340 nM; blank spot 554"}, "[24]": {"molecular_target": "rHuman CD44/Fc Chimera, CF (R&D Systems Cat#3660-CD) (human) (UniProt P16070)", "test": "Multispot ECL (MSD), antigen spotted on plate, Fab 340 nM; blank spot 554"}, "[25]": {"molecular_target": "rHuman IGF-1 sR, (IGF-1 sR), CF (R&D Systems Cat#391-GR) (human) (UniProt P08069)", "test": "Multispot ECL (MSD), antigen spotted on plate, Fab 340 nM; blank spot 554"}, "[26]": {"molecular_target": "rHuman HGF R/c-MET/Fc Chimera, CF (R&D Systems Cat#358-MT/CF) (human) (UniProt P08581)", "test": "Multispot ECL (MSD), antigen spotted on plate, Fab 340 nM; blank spot 554"}, "[27]": {"molecular_target": "rHuman EGF R/Fc Chimera, CF (R&D Systems Cat#344-ER) (human) (UniProt P00533)", "test": "Multispot ECL (MSD), antigen spotted on plate, Fab 340 nM; blank spot 554"}, "[28]": {"molecular_target": "rHuman ErbB2/Fc Chimera, CF (R&D Systems Cat#1129-ER) (human) (UniProt P04626)", "test": "Multispot ECL (MSD), antigen spotted on plate, Fab 340 nM; blank spot 554"}, "[29]": {"molecular_target": "rHuman P-Cadherin/Fc Chimera, CF (R&D Systems Cat#861-PC) (human) (UniProt P22223)", "test": "Multispot ECL (MSD), antigen spotted on plate, Fab 85.0 nM; blank spot 292"}, "[30]": {"molecular_target": "rHuman Notch-1/Fc Chimera, CF (R&D Systems Cat#3647-TK) (human) (UniProt P46531)", "test": "Multispot ECL (MSD), antigen spotted on plate, Fab 85.0 nM; blank spot 292"}, "[31]": {"molecular_target": "rHuman Erythropoietin R/Fc Chimera, CF (R&D Systems Cat#963-ER) (human) (UniProt P19235)", "test": "Multispot ECL (MSD), antigen spotted on plate, Fab 85.0 nM; blank spot 292"}, "[32]": {"molecular_target": "rHuman CD44/Fc Chimera, CF (R&D Systems Cat#3660-CD) (human) (UniProt P16070)", "test": "Multispot ECL (MSD), antigen spotted on plate, Fab 85.0 nM; blank spot 292"}, "[33]": {"molecular_target": "rHuman IGF-1 sR, (IGF-1 sR), CF (R&D Systems Cat#391-GR) (human) (UniProt P08069)", "test": "Multispot ECL (MSD), antigen spotted on plate, Fab 85.0 nM; blank spot 292"}, "[34]": {"molecular_target": "rHuman HGF R/c-MET/Fc Chimera, CF (R&D Systems Cat#358-MT/CF) (human) (UniProt P08581)", "test": "Multispot ECL (MSD), antigen spotted on plate, Fab 85.0 nM; blank spot 292"}, "[35]": {"molecular_target": "rHuman EGF R/Fc Chimera, CF (R&D Systems Cat#344-ER) (human) (UniProt P00533)", "test": "Multispot ECL (MSD), antigen spotted on plate, Fab 85.0 nM; blank spot 292"}, "[36]": {"molecular_target": "rHuman ErbB2/Fc Chimera, CF (R&D Systems Cat#1129-ER) (human) (UniProt P04626)", "test": "Multispot ECL (MSD), antigen spotted on plate, Fab 85.0 nM; blank spot 292"}}, "data": [{"binder": "Fab VH4-34_IGHD7-27*01_IGHJ4*01 & V1-4_IGLJ4*01 (Fab, V domains shown) VH: QVQLQQWGAGLLKPSETLSLTCAVYGGSFSGYYWSWIRQPPGKGLEWIGEINHSGSTNYNPSLKSRVTISVDTSKNQFSLKLSSVTAADTAVYYCARANWGDYFDYWGQGTLVTVSS VL: QSALTQPASVSGSPGQSITISCTGTSSDVGGYNYVSWYQQHPGKAPKLMIYEVSNRPSGVSNRFSGSKSGNTASLTISGLQAEDEADYYCSSYTSSSTLFVFGGGTQLIIL", "values": [{"measurement": "ECL signal at 9.1 nM Fab", "setting": "[1]", "result": 589}, {"measurement": "ECL signal at 145 nM Fab", "setting": "[2]", "result": 850}, {"measurement": "ECL signal at 36.3 nM Fab", "setting": "[3]", "result": 684}, {"measurement": "ECL signal at 580 nM Fab", "setting": "[4]", "result": 2240}]}, {"binder": "Fab VH4-34_IGHD7-27*01_IGHJ4*01 & V4-6_IGLJ4*01 (Fab, V domains shown) VH: QVQLQQWGAGLLKPSETLSLTCAVYGGSFSGYYWSWIRQPPGKGLEWIGEINHSGSTNYNPSLKSRVTISVDTSKNQFSLKLSSVTAADTAVYYCARANWGDYFDYWGQGTLVTVSS VL: RPVLTQPPSLSASPGATARLPCTLSSDLSVGGKNMFWYQQKPGSSPRLFLYHYSDSDKQLGPGVPSRVSGSKETSSNTAFLLISGLQPEDEADYYCQVYESSANFVFGGGTQLIIL", "values": [{"measurement": "ECL signal", "setting": "[5]", "result": 421}, {"measurement": "ECL signal", "setting": "[6]", "result": 649}, {"measurement": "ECL signal", "setting": "[7]", "result": 494}, {"measurement": "ECL signal", "setting": "[8]", "result": 522}, {"measurement": "ECL signal", "setting": "[9]", "result": 646}, {"measurement": "ECL signal", "setting": "[10]", "result": 607}, {"measurement": "ECL signal", "setting": "[11]", "result": 528}, {"measurement": "ECL signal", "setting": "[12]", "result": 866}, {"measurement": "ECL signal", "setting": "[13]", "result": 744}, {"measurement": "ECL signal", "setting": "[14]", "result": 816}, {"measurement": "ECL signal", "setting": "[15]", "result": 790}, {"measurement": "ECL signal", "setting": "[16]", "result": 660}, {"measurement": "ECL signal", "setting": "[17]", "result": 832}, {"measurement": "ECL signal", "setting": "[18]", "result": 757}, {"measurement": "ECL signal", "setting": "[19]", "result": 826}, {"measurement": "ECL signal", "setting": "[20]", "result": 964}, {"measurement": "ECL signal", "setting": "[21]", "result": 1160}, {"measurement": "ECL signal", "setting": "[22]", "result": 1210}, {"measurement": "ECL signal", "setting": "[23]", "result": 1260}, {"measurement": "ECL signal", "setting": "[24]", "result": 959}, {"measurement": "ECL signal", "setting": "[25]", "result": 1040}, {"measurement": "ECL signal", "setting": "[26]", "result": 1240}, {"measurement": "ECL signal", "setting": "[27]", "result": 1210}, {"measurement": "ECL signal", "setting": "[28]", "result": 1230}, {"measurement": "ECL signal", "setting": "[29]", "result": 709}, {"measurement": "ECL signal", "setting": "[30]", "result": 780}, {"measurement": "ECL signal", "setting": "[31]", "result": 817}, {"measurement": "ECL signal", "setting": "[32]", "result": 693}, {"measurement": "ECL signal", "setting": "[33]", "result": 891}, {"measurement": "ECL signal", "setting": "[34]", "result": 998}, {"measurement": "ECL signal", "setting": "[35]", "result": 1000}, {"measurement": "ECL signal", "setting": "[36]", "result": 844}]}]}
